B1: 127E2 (germlined variant of 68F2), full-length IgG1 (antibody, V domains shown)
VH: EVQLQESGPGLVKPSQTLSLTCTVSGGSITTRYYAWSWIRQPPGKGLEWIGVIDYDGDTYYSPSLKSRVTISVDTSKNQFSLQLSSVTAEDTAVYYCARDPDVVTGFHYDYWGQGTQVTVSS
VL: QSALTQPPSVSGSPGQTVTISCAGANNDIGTYAYVSWYQQPPGTAPKLLIYKVTTRASGVPDRFSGSKSGNTASLTISGLQAEDEADYYCASYRNFNNAVFGGGTHLTVL
B2: Fab 28C6 (Fab, V domains shown)
VH: QVQLVESGGGLVQPGGSLRLSCAASGFTFSNYYMTWVRQAPGKGLEWVSSIYSFSGDTAYADSVKGRFTISRDNAKNTLYLQMNKLKSEDTAVYYCTRDLGGVVVTANGYDYWGQGTQVTVSS
VL: DIVMTQTPSSLSASLGDRVTITCQASQSISTELSWYQQKPGQTPKLLIYGASRLQTGVPARFSGSGSGTSFTLTISGLEAEDLATYYCLQDYSWPYSFGSGTRL
notes: Fab
B3: Fab 18F8 (Fab, V domains shown)
VH: EVQLVESGGGLVQPGGSLRLSCAASGFTFSRNAMSWVRQAPGKGLEWVSAINSGGGSTSYADSVKGRFTISRDNAKNTLYLQMNSLKPEDTAVYYCAKEGYTGWKDPMYDYWGQGTQVTVSS
VL: QSALTQPSALSVTLGQTAKITCQGGSLGSRYAHWYQQKPGQAPVLVIYDDDSRPSGIPERFSGSSSGGRATLTISGAQAEDEGDYYCQSADTSEHIVFGGGTHLTVLG
notes: Fab
B4: 55E10 (Fab, V domains shown)
VH: QVQLVESGGGLVQPGGSLRLSCAASGFTFSNYYMTWVRQAPGKGLEWVSSIYSFSGDTAYADSVKGRFTISRDNAKNTLYLQMNSLKSEDTAVYYCTRNLGGVVVTTNGYDYWGQGTQVTVSS
VL: DIQMTQSPSSLPTSLGDSVTITCQASQSISDELSWYQQKPGQTPKLLIYGASKLQTGVPSRFSGSGSGTSFTLTISGLEAEDLATYYCLQGYSWPFMFGQGTKVELK
notes: Periplasmic Fab; Suffix 'g1' not explained; also called 55E10g1
B5: 48H1 (Fab, V domains shown)
VH: QVQLVESGGGLVQPGGSLRLSCAASGFTFSNYYMTWVRQAPGKGLEWVSSIYSFSGDTAYADSVKGRFTISRDNAKNTLYLQMNSLKSEDTAVYYCTRNLGGVVVTTNGYDYWGQGTQVTVSS
VL: DVVMTQSPSSLPTSLGDSVTITCQASQSISDELSWYQQKPGQTPKLLIYGASKLQTGVPSRFSGSGSGTSFTLTISGLEAEDLATYYCLQGYSWPFMFGQGTKVELK
notes: Periplasmic Fab; Suffix 'g2, R4' not explained; also called 48H1g2, R4
B6: 55A11 (Fab, V domains shown)
VH: QVQLVESGGGLVQPGGSLRLSCAASGFTFSNYYMTWVRQAPGKGLEWVSSIYSFSGDTAYADSVKGRFTISRDNAKNTLYLQMNSLKSEDTAVYYCTRNLGGVVVTTNGYDYWGQGTQVTVSS
VL: DIQMTQSPSSLPTSLGDSVTITCQASQSISDELSWYQQKPGQTPKLLIYGASRLQTGVPSRFSGRGSGTSFTLTISGLEAEDLATYYCLQGYSWPFMFGQGTKVELK
notes: Periplasmic Fab; Suffix 'd' of the label not explained; also called 55A11d
B7: 55C11 (Fab, V domains shown)
VH: QVQLVESGGGLVQPGGSLRLSCAASGFTFSNYYMTWVRQAPGKGLEWVSSIYSFSGDTAYADSVKGRFTISRDNAKNTLYLQMNSLKSEDTAVYYCTRNLGGVVVTTNGYDYWGQGTQVTVSS
VL: DIQLTQSPSSLSASLGDSVTITCQASQSISDELSWYQQKPGQTPKLLIYGASKLQTGVPSRFSGSGSGTSFTLTISGLEAEDLATYYCLQGYRWPFMFGQGTKVELK
notes: Periplasmic Fab; Suffix 'f' not explained; also called 55C11f

What was measured:
[1] = biological target: human IL-6 (as added in the B9 and 7TD1 bioassays) (human, UniProt P05231 30-212); assay: cell-based or functional assay
[2] = biological target: T1, bacterially produced human IL-6 (human, UniProt P05231 30-212); assay: SPR; purified Fab over biotinylated IL-6 on streptavidin chip
T1 construct: also called bactIL-6; prokaryotic IL-6
Procedure: From the washing phase the off-rate (kd) was determined, while from the injection phase the on-rate (ka) was calculated using the concentration and off-rate as parameters.

[3] = biological target: T2, bacterially produced human IL-6 (human, UniProt P05231 30-212); assay: SPR (Biacore), periplasmic Fab
T2 construct: Immobilised on the Biacore chip; also called BACT IL-6 (2-1); bactIL-6

[4] = biological target: T3, eukaryotically produced human IL-6 (human, UniProt P05231 30-212); assay: SPR (Biacore), periplasmic Fab
T3 construct: Immobilised on the Biacore chip; also called Euk IL-6; EUK IL-6 (3-1)

cynomolgus monkey IL-6 = biological target: T4, cynomolgus monkey IL-6 (cynomolgus monkey, UniProt P79341 28-212, limits assumed); assay: SPR (Biacore), periplasmic Fab
T4 construct: Immobilised on the Biacore chip

Binder	Ka [3]	Kd [3]	fold improvement of KD over 28A6 (parental) [3]	fold improvement of ka over 28A6 (parental) [3]	fold improvement of kd over 28A6 (parental) [3]	koff [3]	kon [3]	Ka [4]	Kd [4]	fold improvement of KD over 28A6 (parental) [4]	fold improvement of ka over 28A6 (parental) [4]	fold improvement of kd over 28A6 (parental) [4]	koff [4]	kon [4]	Ka (cynomolgus monkey IL-6)	Kd (cynomolgus monkey IL-6)	fold improvement of KD over 28A6 (parental) (cynomolgus monkey IL-6)	fold improvement of ka over 28A6 (parental) (cynomolgus monkey IL-6)	fold improvement of kd over 28A6 (parental) (cynomolgus monkey IL-6)	koff (cynomolgus monkey IL-6)	further results
B1																					IC50, 7TD1 proliferation assay, exp 22.06 (batch 24.06) [1]: 0.00138 nM; IC50, 7TD1 proliferation assay, exp 29.06 (batch 17.06) [1]: 0.00151 nM; IC50, 7TD1 proliferation assay, exp 29.06 (batch 24.06) [1]: 0.00125 nM; Rel. Potency, 7TD1, exp 29.06 (batch 24.06) [1]: 0.45
B2																					Ka [2]: 4.04e+07 M⁻¹; Kd [2]: 24.8 nM; koff [2]: 0.0025 s⁻¹; kon [2]: 101000 M⁻¹ s⁻¹
B3																					Ka [2]: 6.18e+07 M⁻¹; Kd [2]: 16.2 nM; koff [2]: 0.000784 s⁻¹; kon [2]: 48400 M⁻¹ s⁻¹
B4	3.18e+09 M⁻¹	0.315 nM	2.38 fold	0.81 fold	2.92 fold	6.09e-05 s⁻¹	193000 M⁻¹ s⁻¹	2.62e+09 M⁻¹	0.382 nM	1.52 fold	0.8 fold	1.88 fold	5.59e-05 s⁻¹	146000 M⁻¹ s⁻¹	2.1e+09 M⁻¹	0.476 nM	11 fold	1.13 fold	9.78 fold	6.88e-05 s⁻¹	kon (cynomolgus monkey IL-6): 145000 M⁻¹ s⁻¹
B5	2.93e+09 M⁻¹	0.341 nM	2.2 fold	0.87 fold	2.53 fold	7.04e-05 s⁻¹	206000 M⁻¹ s⁻¹	1.56e+09 M⁻¹	0.64 nM	0.91 fold	0.58 fold	1.54 fold	6.8e-05 s⁻¹	106000 M⁻¹ s⁻¹	1.18e+09 M⁻¹	0.845 nM	6.21 fold	0.88 fold	7.11 fold	9.46e-05 s⁻¹	kon (cynomolgus monkey IL-6): 112000 M⁻¹ s⁻¹
B6	2.78e+09 M⁻¹	0.359 nM	2.09 fold	0.79 fold	2.63 fold	6.76e-05 s⁻¹	188000 M⁻¹ s⁻¹	1.59e+09 M⁻¹	0.631 nM	0.92 fold	0.55 fold	1.65 fold	6.36e-05 s⁻¹	101000 M⁻¹ s⁻¹	1.77e+09 M⁻¹	0.566 nM	9.28 fold	1.13 fold	8.24 fold	8.17e-05 s⁻¹	kon (cynomolgus monkey IL-6): 144000 M⁻¹ s⁻¹
B7	3.29e+09 M⁻¹	0.304 nM	2.46 fold	0.96 fold	2.56 fold	6.94e-05 s⁻¹	228000 M⁻¹ s⁻¹	3.1e+09 M⁻¹	0.323 nM	1.8 fold	1.1 fold	1.62 fold	6.47e-05 s⁻¹	201000 M⁻¹ s⁻¹	3.2e+09 M⁻¹	0.313 nM	16.8 fold	2.23 fold	7.56 fold	8.9e-05 s⁻¹	kon (cynomolgus monkey IL-6): 285000 M⁻¹ s⁻¹

— patent publication US20220073604A1 (ARGENX BVBA, published 2022)
